Results as given in article PMC2712996.

Target: Rabbit skeletal muscle actin (F-actin) (rabbit) (UniProt P68135)
Assay: co-sedimentation

- percent pelleted with F-actin: 41%
Substance: GST-Cno (aa 1,560–2,051) (domain or fragment)
